Measurements as given in patent US20230039941A1, “ENZYME ENHANCED ROOT UPTAKE OF AGROCHEMICAL ACTIVE COMPOUND” (BASF SE, priority 2019, published 2023).
Changes are numbered by the printed parent chain. Marks after values point to notes of the source that are not given here.

How the values were obtained:
[1] = Uptake of the active ingredient in canola seedling cotyledons after seed treatment with or without cutinase; type: in vivo; conditions: canola, cotyledons (leaf), other: seed treatment (slurry applied to seeds), 20.1 μg/seed; Cotyledon analysis seven days after planting; normalized using mean % Al recovery (90.9%) and mean % coating efficiency; read-out: Mean Al Uptake (ng/mg leaf)
Experimental: (§1) Canola seeds were treated with formulated product diluted in water by spinning 100 g seed in a 1-liter HEGE bowl while applying treatment slurry. Seeds were spun until dry.
(§2) On the day of planting, 24-well plates (10 mL, nonsterile) were filled with a highly organic plug & seedling mix. Water was uniformly applied to the soil surface using a spray nozzle until just before complete saturation of soil column. Soil was tamped down to a level of 1 cm below plate surface. One treated seed was placed on the soil surface of each well and then covered with potting mixture leveled to the plate surface. The top soil surface was sprayed once more to moisten. Plates were then held in an incubator and top-watered as needed with fertilizer water (NPK 16-4-20-3(Ca)-1(Mg)) via spray nozzle. Seven days after planting, both cotyledons from ten plants were sampled for analysis by clipping the point where cotyledon meets stem. Replication was 10×.
(§3) The seed/excised cotyledons were extracted with acetonitrile solvent (3 mL, containing 1% acetic acid) by homogenization in Teflon tubes using 2010 Geno/Grinder (Spex Sample Prep) for 2 min at 1200 RPM. The homogenate was then mixed with anhydrous sodium sulphate (˜600 mg), sodium acetate (˜100 mg) and vortexed well before centrifugation using Beckman Coulter (Allegra X-14R) centrifuge for 5 min at 3000 RPM. The clear supernatant was then transferred into appropriate vials for LC/MS analysis.
(§4) LCMS analyses were performed using Thermo Fisher Scientific Extractive Orbitrap Mass Analyzer with electrospray positive mode of ionization. Thermo Fisher Scientific Surveyor MS Plus Pump and autosampler were used for the chromatographic runs through a column (Sonoma-C18, 2.1×100 mm, 5 μm). The gradient started with 98:2 Water/MeOH (containing 4 mM ammonium formate and 0.1% formic acid) and ending with 98:2 MeOH/Water in about 10 min.

canola seedlings = assay: as above; type: in vivo; conditions: for Al Uptake (%) / Mean Al Uptake (ng/mg leaf): Cotyledon analysis seven days after planting; for Al Uptake (%): calculated based on spiked control, 22340 ng/replicate; for Mean Al Uptake (ng/mg leaf): normalized using mean % Al recovery (90.9%) and mean % coating efficiency
Experimental: as §1, §2, §3, §4

wheat seedlings = assay: Clothianidin uptake in wheat seedlings (cotyledon analysis) after seed treatment with cutinases; type: in vivo, Triticum sp.; conditions: for Average of clothianidin detected on 15 pairs of wheat cotyledons: wheat seed treatment with clothianidin plus enzyme-containing cell extract; for % Clothianidin uptake in wheat cotyledons: wheat seed treatment, one way ANOVA test (P = 0.002); for percent clothianidin uptake in wheat seedlings, effect of cutinase seed treatment: P=0.002
Experimental: a. Seed treatment: Formulations were diluted and enzymes were dissolved in HPLC water. Solutions were made and mixed immediately before each treatment. For each treatment, 100 g of spring wheat seeds (Triticum sp.) were placed in a 1-L bowl of a HEGE 11 seed treater. Treatment slurry was applied to spinning seeds in an application volume of 1.5 mL including 2.05 mg of lyophilized enzyme-containing cell extracts and seeds were spun until dry. Directly after treatment, seeds were transferred to paper seed pouches and stored in a cooler filed with ice packs until planting.
b. Plant incubation: Before seed treatment, 24-well plates were filled with RediEarth potting mixture sifted through a 3.35-mm mesh sieve. Tap water was uniformly applied to the soil surface using a conical spray nozzle until just before complete saturation of soil column (˜55 mL/plate). The soil was tamped down to a level of 1 cm below plate surface. One hour after treatment, one seed was placed on the soil surface of each well. RediEarth was sifted directly over the wells and the soil line was levelled to the plate surface. The soil surface was moistened again with ˜22 mL water/plate. Plates were then held in a randomized complete block design in an incubator at 25° C., 50% RH containing two FloraSun (F25T8 Plant Growth) lights at 14L:10D. Replication was 10 plates per treatment.
d. Cotyledon analysis: Fifteen excised pairs of wheat cotyledons were extracted (10× replicates) with acetonitrile solvent (10 mL, containing 1% acetic acid) by homogenization. The homogenate is first centrifuged to bring down the solvent/material sticking to the cap using Beckman Coulter (Allegra X-14R) centrifuge for 3 min at 3000 RPM. The collected homogenate is then treated with anhydrous magnesium sulfate (˜3500 mg), sodium acetate (˜220 mg) and vortexed well (˜30s) before further centrifugation for the same duration as above. The supernatant clear solution is then transferred into appropriate vials for LC/MS analysis without further dilution.
Control samples were prepared by spiking a known amount std clothianidin into 15 pairs of cotyledons (10 replicates) collected from the seedlings of untreated […] seeds and homogenized and processed as above. The recovery of the AI was quantified from the LC/MS data and then used to normalize the results from treated cotyledon sample sets.
as §4, with “Q-Exactive” for “Extractive Orbitrap”, “u).” for “μm).”

## C[n+]1c([O-])c(-c2ccccc2)c(=O)n2c1SC[C@@H]2c1cnc(Cl)s1 [(3R)-3-(2-chlorothiazol-5-yl)-8-methyl-5-oxo-6-phenyl-2,3-dihydrothiazolo[3,2-a]pyrimidin-8-ium-7-olate]
[1]
  concentration at 7 days after planting: 2290 ng/g
Canola seedlings
  Al Uptake (%): 0.40%

## CN/C(=N\[N+](=O)[O-])NCc1cnc(Cl)s1 [clothianidin, reference compound]
Wheat seedlings
  Average of clothianidin detected on 15 pairs of wheat cotyledons: 9.4 ± 2.0 ng
  % Clothianidin uptake in wheat cotyledons: 0.39 ± 0.08^a %

B1: CUT-1: Cutinase according to SEQ No. 1, biological source Pseudomonas mendocina (US5545547A) (protein, listed as Pseudomonas mendocina)
chain: APLPDTPGAPFPAVANFDRSGPYTTSSQSEGPSCRIYRPRDLGQGGVRHPVILWGNGTGAGPSTYAGLLSHWASHGFVVAAAETSNAGTGREMLACLDYLVRENDTPYGTYSGKLNTGRVGTSGHSQGGGGSIMAGQDTRVRTTAPIQPYTLGLGHDSASQRRQQGPMFLMSGGGDTIAFPYLNAQPVYRRANVPVFWGERRYVSHFEPVGSGGAYRGPSTAWFRFQLMDDQDARATFYGAQCSLCTSLLWSVERRGL
modifications: Cutinase 1
Canola seedlings
  Al Uptake (%): 0.60%
  Mean Al Uptake (ng/mg leaf): 3.04 ng/mg leaf
Canola seedlings; canola cotyledon analysis
  mean AI uptake (ng/mg leaf) compared with no enzyme control: significantly higher than no enzyme control
  percent of AI uptake compared with no enzyme control: significantly higher than no enzyme control
Wheat seedlings
  percent clothianidin uptake in wheat seedlings, effect of cutinase seed treatment: significantly enhanced
  Average of clothianidin detected on 15 pairs of wheat cotyledons: 12.5 ± 3.2 ng
  % Clothianidin uptake in wheat cotyledons: 0.59 ± 0.15^b %

B2: CUT-2: Cutinase according to SEQ No. 2, biological source Pseudomonas mendocina (PDB 2FX5_A) (protein, listed as Pseudomonas mendocina)
chain: B1 chain with T25V
modifications: Cutinase 2
Canola seedlings
  Al Uptake (%): 0.39%
  Mean Al Uptake (ng/mg leaf): 1.87 ng/mg leaf
Wheat seedlings
  percent clothianidin uptake in wheat seedlings, effect of cutinase seed treatment: improvement was not significant
  Average of clothianidin detected on 15 pairs of wheat cotyledons: 11.9 ± 3.4 ng
  % Clothianidin uptake in wheat cotyledons: 0.53 ± 0.15^ab %

B3: CUT-4: Cutinase according to SEQ No. 4, Pseudomonas mendocina (94%), NCBI WP_096825365.1 (protein)
chain: APLPDTPGAPFPSVSNFDRSGPYATTSRSEGPNCRVYRPATLGQNGVRHPIVLWGNGTGTGPTAYSGLLSHWASHGFVVAAAETSNAGTGEQMLACLDYLVQESNRTYGTYVGVLNTGRVGTSGHSQGGGGSIMAGQDERVSVTAPIQPYTIGLGHDSASQRNQQGPMFLMSGGGDTIAFPYLNAQPVYTRANVPVFWGERRYVSHFEPVGDGGAYRGPSTAWFRYHLMEDETARSTFYGRFCGLCTSVLWTEERKDIE
modifications: Pseudomonas sp. SST3; Cutinase 9
Canola seedlings
  Al Uptake (%): 0.43%
  Mean Al Uptake (ng/mg leaf): 2.16 ng/mg leaf
Wheat seedlings
  percent clothianidin uptake in wheat seedlings, effect of cutinase seed treatment: improvement was not significant
  Average of clothianidin detected on 15 pairs of wheat cotyledons: 10.8 ± 2.1 ng
  % Clothianidin uptake in wheat cotyledons: 0.44 ± 0.09^a %
